Source: patent publication US20190338002A1 (Pieris, published 2019)
Substitutions are numbered along the chain they refer to.

Key:
[1] = biological target: T1, human alpha CGRP (SEQ ID NO: 80) (human, not fully specified); experiment: SPR Biacore 37 °C, protein captured as ligand, ha CGRP (1-37) injected, 1:1 fit of a flat sensorgram; run 130208_NAN-DS-047 [contd]
T1 construct: also called human αCGRP; hαCGRP
T1 peptide: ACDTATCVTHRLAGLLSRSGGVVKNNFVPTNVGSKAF
Description: (§1) The Biotin CAPture Kit (GE Healthcare) was used to immobilize biotinylated lipocalin muteins to a chip surface. Muteins were biotinylated using standard NHS chemistry. Undiluted Biotin CAPture Reagent (streptavidin conjugated with ss-DNA oligo) was captured on a Sensor Chip CAP with the pre-immobilized complementary ss-DNA oligo. Thereafter, biotinylated muteins at 1 μg/mL were applied for 300 s at a flow rate of 5 μL/min.
(§2) CGRP species were applied in three concentrations of 30 nM, 3 nM and 0.3 nM at a flow rate of 30 μL/min or in a single concentration of 25 nM per cycle as shown in FIG. 2. The dilutions were injected with association times of 180 s and dissociation times of 5400 sec to obtain ka and kd information. Regeneration of the chip surface was achieved by injecting 6 M Guanidinium-HCl+0.25 M NaOH (120 s) with a flow rate of 10 μL/min. […]
(§3) The data were double-referenced by subtraction of the corresponding signals measured for the control channel (loaded with Biotin CAPture reagent only) and by subtraction of buffer injections from the binding responses. Association rate constant ka and dissociation rate constant kd for the binding reaction were determined using Biacore T200 Evaluation Software V2.0 for data processing and kinetic fitting. […]

[2] = biological target: T2, rat beta CGRP (SEQ ID NO: 83) (rat, not fully specified); experiment: SPR Biacore 37 °C, protein captured as ligand, rb CGRP (1-37) injected, 1:1 fit of a flat sensorgram; run 130208_NAN-DS-047 [contd]
T2 construct: also called rat βCGRP; rat β-CGRP
T2 peptide: T1 peptide with A1S, D3N, N25D
Description: as §1, §2, §3

[3] = biological target: T3, rat alpha CGRP (SEQ ID NO: 82) (rat); experiment: SPR Biacore 37 °C, protein captured as ligand, ra CGRP (1-37) injected, 1:1 fit of a flat sensorgram; run 130301_NAN-DS-049
T3 construct: also called rat αCGRP; rat α-CGRP
T3 peptide: T1 peptide with A1S, D3N, N25D, K35E
Description: as §1, §2, §3

[4] = biological target: T2, rat beta CGRP (SEQ ID NO: 83); experiment: SPR Biacore 37 °C, protein captured as ligand, rb CGRP (1-37) injected, 1:1 fit of a flat sensorgram; run 130301_NAN-DS-049
Description: as §1, §2, §3

[5] = biological target: T4, human beta CGRP (SEQ ID NO: 81) (human, not fully specified); experiment: SPR Biacore 37 °C, protein captured as ligand, hb CGRP (1-37) injected, 1:1 fit of a flat sensorgram; run 130208_NAN-DS-047 [contd]
T4 construct: also called human βCGRP; hβCGRP
T4 peptide: T1 peptide with D3N, V22M, N25S
Description: as §1, §2, §3

[6] = biological target: T4, human beta CGRP (SEQ ID NO: 81); experiment: SPR Biacore 37 °C, protein captured as ligand, hb CGRP (1-37) injected, 1:1 fit of a flat sensorgram; run 130301_NAN-DS-049
Description: as §1, §2, §3

[7] = biological target: T1, human alpha CGRP (SEQ ID NO: 80); experiment: SPR Biacore 37 °C, protein captured as ligand, ha CGRP (1-37) injected, 1:1 fit of a flat sensorgram; run 130301_NAN-DS-049
Description: as §1, §2, §3

[8] = biological target: T3, rat alpha CGRP (SEQ ID NO: 82); experiment: SPR Biacore 37 °C, protein captured as ligand, ra CGRP (1-37) injected, 1:1 fit of a flat sensorgram; run 130208_NAN-DS-047 [contd]
Description: as §1, §2, §3

[9] = biological target: T2, rat beta CGRP (SEQ ID NO: 83); experiment: SPR, 37 C, mutein captured, CGRP analyte
Method in brief: (§4)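 Biotinylated lipocalin muteins were captured on streptavidin-oligo CAP chip, and CGRP was injected at 30, 3 and 0.3 nM or at a single 25 nM at 37 °C (180 s association, 5400 s dissociation) in HBS-EP+. Double-referenced sensorgrams were globally fit to a 1:1 model for ka and kd.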

[10] = biological target: T4, human beta CGRP (SEQ ID NO: 81); experiment: SPR, 37 C, mutein captured, CGRP analyte
Method in brief: as §4

[11] = biological target: T3, rat alpha CGRP (SEQ ID NO: 82); experiment: SPR, 37 C, mutein captured, CGRP analyte
Method in brief: as §4

[12] = biological target: T1, human alpha CGRP (SEQ ID NO: 80); experiment: SPR, 37 C, mutein captured, CGRP analyte
Method in brief: as §4

[13] = biological target: T1, human alpha CGRP (SEQ ID NO: 80); experiment: SPR Biacore 37 °C, mutein captured as ligand, sample PL1827 (ha CGRP) injected, 1:1 fit; repeat run 130903_NAN-DS-058 (not the run of Table 2) [contd]
Description: as §1
(§5) CGRP species were applied in three concentrations of 30 nM, 3 nM and 0.3 nM at a flow rate of 30 μL/min or in a single concentration of 25 nM per cycle as shown in FIG. 2. The dilutions were injected with association times of 180 s and dissociation times of 5400 sec to obtain ka and kd information. Regeneration of the chip surface was achieved by injecting 6 M Guanidinium-HCl+0.25 M NaOH (120 s) with a flow rate of 10 μL/min. Injection of regeneration solutions was followed by an extra wash step with HBS-EP+(1×; BR-1006-69; GE Healthcare) running buffer and a stabilization period of 120 s.
(§6) The data were double-referenced by subtraction of the corresponding signals measured for the control channel (loaded with Biotin CAPture reagent only) and by subtraction of buffer injections from the binding responses. Association rate constant ka and dissociation rate constant kd for the binding reaction were determined using Biacore T200 Evaluation Software V2.0 for data processing and kinetic fitting. The data were globally fit with 1:1 binding model.

[14] = biological target: T2, rat beta CGRP (SEQ ID NO: 83); experiment: SPR Biacore 37 °C, mutein captured as ligand, rb CGRP sample PL1830 injected, 1:1 fit; repeat run 130903_NAN-DS-058 (not the run of Table 2) [contd]
[15] = biological target: T2, rat beta CGRP (SEQ ID NO: 83); experiment: cell-based or functional assay
[16] = biological target: T4, human beta CGRP (SEQ ID NO: 81); experiment: cell-based or functional assay
[17] = biological target: T3, rat alpha CGRP (SEQ ID NO: 82); experiment: cell-based or functional assay
[18] = biological target: T1, human alpha CGRP (SEQ ID NO: 80); experiment: cell-based or functional assay
[19] = biological target: T3, rat alpha CGRP (SEQ ID NO: 82); experiment: SPR Biacore 37 °C, mutein captured as ligand, ra CGRP (1-37) injected, 1:1 fit; repeat run 130208_NAN-DS-047 (not the run of Table 2) [contd]
Description: as §1, §5, §6

[20] = biological target: T2, rat beta CGRP (SEQ ID NO: 83); experiment: SPR Biacore 37 °C, mutein captured as ligand, rb CGRP (1-37) injected, 1:1 fit; repeat run 130208_NAN-DS-047 (not the run of Table 2) [contd]
Description: as §1, §5, §6

[21] = biological target: T4, human beta CGRP (SEQ ID NO: 81); experiment: SPR Biacore 37 °C, mutein captured as ligand, hb CGRP (1-37) injected, 1:1 fit; repeat run 130208_NAN-DS-047 (not the run of Table 2) [contd]
Description: as §1, §5, §6

[22] = biological target: T1, human alpha CGRP (SEQ ID NO: 80); experiment: SPR Biacore 37 °C, mutein captured as ligand, ha CGRP (1-37) injected, 1:1 fit; repeat run 130208_NAN-DS-047 (not the run of Table 2) [contd]
Description: as §1, §5, §6

[23] = biological target: T3, rat alpha CGRP (SEQ ID NO: 82); experiment: SPR Biacore 37 °C, mutein captured as ligand, sample PL1829 (ra CGRP) injected, 1:1 fit; repeat run 130903_NAN-DS-058 (not the run of Table 2) [contd]
Description: as §1, §2, §3

[24] = biological target: T2, rat beta CGRP (SEQ ID NO: 83); experiment: SPR Biacore 37 °C, mutein captured as ligand, sample PL1830 (rb CGRP) injected, 1:1 fit; repeat run 130903_NAN-DS-058 (not the run of Table 2) [contd]
Description: as §1, §2, §3

[25] = biological target: T4, human beta CGRP (SEQ ID NO: 81); experiment: SPR Biacore 37 °C, mutein captured as ligand, sample PL1828 (hb CGRP) injected, 1:1 fit; repeat run 130903_NAN-DS-058 (not the run of Table 2) [contd]
Description: as §1, §2, §3

B1: hNGAL wildtype (SEQ ID NO:1) (other)
chain: QDSTSDLIPAPPLSKVPLQQNFQDNQFHGKWYVVGLAGNAILREDKDPQKMYATIYELKEDKSYNVTSVLFRKKKCDYWIRTFVPGSQPGEFTLGNIKSYPGLTSYLVRVVSTNYNQHAMVFFKKVSQNREYFKITLYGRTKELTSELKENFIRFSKSLGLPENHIVFPVPIDQCIDG
notes: also called human lipocalin 2; human Lcn 2
koff [1]: 0.00234 s⁻¹ | kon [1]: 342000 M⁻¹ s⁻¹ | koff [2]: 0.00414 s⁻¹ | kon [2]: 1.1e+06 M⁻¹ s⁻¹ | koff [3]: 0.00105 s⁻¹ | kon [3]: 970000 M⁻¹ s⁻¹ | koff [4]: 0.00233 s⁻¹ | kon [4]: 1.62e+06 M⁻¹ s⁻¹ | koff [5]: 0.000159 s⁻¹ | kon [5]: 347000 M⁻¹ s⁻¹ | koff [6]: 0.0185 s⁻¹ | koff [7]: 0.00221 s⁻¹ | kon [7]: 1200 M⁻¹ s⁻¹ | koff [8]: 0.00259 s⁻¹ | kon [8]: 1640 M⁻¹ s⁻¹

B2: lipocalin mutein SEQ ID NO: 11 (designed binder)
chain: QDSTSDLIPAPPLSKVPLQQNFQDNQFHGKWYVVGWAGNTLLREDKDPIKMQAIIYELKEDRSYNVTWVYFSEKKCNYHIETFVPGSQPGEFTLGTIKSYPGETPILVRVVSTNYNQHAMVFFKGVNQNREIFEIILYGRTKELTNELKENFIRFSKSLGLPENHIVFPVPIDQCIDGSAWSHPQFEK
notes: biotinylated by NHS chemistry for capture in SPR
Kd [9]: 0.042 nM | koff [9]: 7.3e-05 s⁻¹ | kon [9]: 1.74e+06 M⁻¹ s⁻¹ | Kd [10]: 0.007 nM | koff [10]: 5.63e-05 s⁻¹ | kon [10]: 7.91e+06 M⁻¹ s⁻¹ | Kd [11]: 0.08 nM | koff [11]: 7.6e-05 s⁻¹ | kon [11]: 984000 M⁻¹ s⁻¹ | Kd [12]: 0.015 nM | koff [12]: 4.55e-05 s⁻¹ | kon [12]: 3.08e+06 M⁻¹ s⁻¹ | koff [13]: 6.55e-05 s⁻¹ | kon [13]: 1.76e+06 M⁻¹ s⁻¹ | koff [14]: 6.38e-05 s⁻¹ | IC50, CGRP-induced cAMP production, L6 cells [15]: 0.06 nM | IC50, CGRP-induced cAMP production, SK-N-MC cells [16]: 0.22 nM | IC50, CGRP-induced cAMP production, L6 cells [17]: 0.08 nM | IC50, CGRP-induced cAMP production, SK-N-MC cells [18]: 0.11 nM | koff [19]: 7.72e-05 s⁻¹ | kon [19]: 867000 M⁻¹ s⁻¹ | koff [20]: 5.56e-05 s⁻¹ | kon [20]: 969000 M⁻¹ s⁻¹ | koff [21]: 4.61e-05 s⁻¹ | kon [21]: 4.14e+06 M⁻¹ s⁻¹ | koff [22]: 5.31e-05 s⁻¹ | kon [22]: 2.02e+06 M⁻¹ s⁻¹ | koff [23]: 8.08e-05 s⁻¹ | kon [23]: 1.58e+06 M⁻¹ s⁻¹ | kon [24]: 1.75e+06 M⁻¹ s⁻¹ | koff [25]: 3.73e-05 s⁻¹ | kon [25]: 2.41e+06 M⁻¹ s⁻¹
